Changes are numbered by the printed parent chain.
B1: 511-min (scFv, V domains shown)
VH: EVQLVESGGGLVQPGGSLRLSCAASGFSLNTYYMNWVRQAPGKGLEWVSIIAPDDTTYYASWAKSRFTISRDNSKNTLYLQMNSLRAEDTAVYYCAKSGDTTAWGADIWGQGTLVTVSS
VL: EIVMTQSPSTLSASVGDRVIITCQASQSINIWCSWYQQKPGKAPKLLIYRASTLASGVPSRFSGSGSGAEFTLTISSLQPDDFATYYCQANYAYSAGYGAAFGQGTKLTVL
B2: 509-max (scFv)
chain: EIVMTQSPSTLSASVGDRVIITCQASQNIRIWLSWYQQKPGKAPKLLIYKASTLESGVPSRFSGSGSGTEFTLTISSLQPDDFATYYCQNNAHYSTNGGTFGQGTKLTVLGGGGGSGGGGSGGGGSGGGGSEVQLVESGGGLVQPGGSLRLSCTASGFSLSSYYMCWVRQAPGKGLEWVGCLDYVGDTDYASWAKGRFTISKDASKNTVYLQMNSLRAEDTAVYYCARTDDSRGWGLNIWGQGTLVTVSS
B3: 435-max (scFv)
chain: EIVMTQSPSTLSASVGDRVIITCQASQSIGSSLAWYQQKPGKAPKLLIYTAANLASGVPSRFSGSRSGAEFTLTISSLQPDDFATYYCQNFATSDTVTFGQGTKLTVLGGGGGSGGGGSGGGGSGGGGSEVQLVESGGGLVQPGGSLRLSCKASGFSLNTNYWMCWVRQAPGKGLEWVGCMYTGSYNRAYYASWAKGRFTSSKDTSKNTVYLQMNSLRAEDTAVYYCAKGSNWYSDLWGQGTLVTVSS
B4: 534-max (scFv)
chain: EIVMTQSPSTLSASVGDRVIITCQASQSINIWLSWYQQKPGKAPKLLIYKESTLASGVPSRFSGSGSGTEFTLTISSLQPDDFATYYCQNNYDSGNNGFPFGQGTKLTVLGGGGGSGGGGSGGGGSGGGGSEVQLVESGGGLVQPGGSLRLSCTASGFSLSYYYMSWVRQAPGKGLEWVGIIGPGDYTDYASWAKGRFTISKDTSKNTVYLQMNSLRAEDTAVYYCARGDDNSGWGEDIWGQGTLVTVSS
B5: 610-min (scFv)
chain: EIVMTQSPSTLSASVGDRVIITCQASQSISSWLSWYQQKPGKAPKLLIYQASTLASGVPSRFSGSGSGAEFTLTISSLQPDDFATYYCQNNYGFRSYGGAFGQGTKLTVLGGGGGSGGGGSGGGGSGGGGSEVQLVESGGGLVQPGGSLRLSCAASGIDFSGAYYMGWVRQAPGKGLEWVSYIDYDGDRYYASWAKGRFTISRDNSKNTLYLQMNSLRAEDTAVYYCAKSDYSSGWGTDIWGQGTLVTVSS
B6: 610-max (scFv)
chain: B5 chain with A69T, A154T, S181G, R203K, N205T, L210V, K229R
B7: 375-min (scFv)
chain: EIVMTQSPSTLSASVGDRVIITCQASENINIWLSWYQQKPGKAPKLLIYQASKLASGVPSRFSGSGSGAEFTLTISSLQPDDFATYYCQNNYSYNRYGAPFGQGTKLTVLGGGGGSGGGGSGGGGSGGGGSEVQLVESGGGLVQPGGSLRLSCAASGFSFTTTDYMCWVRQAPGKGLEWVSCILAGDGSTYYANWAKGRFTISRDNSKNTLYLQMNSLRAEDTAVYYCAKSDPASSWSFALWGQGTLVTVSS
B8: 375-max (scFv)
chain: B7 chain with A69T, E70Q, A154K, S181G, I202G, R204K, N206T, L211V, K230R
B9: EP42_min (scFv)
chain: EIVMTQSPSTLSASVGDRVIITCQSTESVYKNNYLAWYQQKPGKAPKLLIYDASTLASGVPSRFSGSGSGAEFTLTISSLQPDDFATYYCAGYYRSGFGTANGSFGQGTKLTVLGGGGGSGGGGSGGGGSGGGGSEVQLVESGGGLVQPGGSLRLSCAASGFTFRNDAISWVRQAPGKGLEWVSYISDWGIKYYASWVKGRFTISRDNSKNTLYLQMNSLRAEDTAVYYCAKGAPGAGDNGIWGQGTLVTVSS
B10: EP34_max (scFv)
chain: EIVMTQSPSTLSASLGDRVIITCQSSQSVYGNIWMAWYQQKSGKAPKLLIYQASKLASGVPSRFSGSGSGAEFSLTISSLQPDDFATYYCQGNFNTGDRYAFGQGTKLTVLGGGGGSGGGGSGGGGSGGGGSEVQLVESGGGLVQPGGSLRLSCTASGFTISRSYWICWVRQAPGKGLEWVACIYGDNDITPLYANWAKGRFPVSTDTSKNTVYLQMNSLRAEDTAVYYCARLGYADYAYDLWGQGTLVTVSS
B11: EP19_max (scFv)
chain: EIVMTQSPSTLSASVGDRVIITCQASDNIYRGLAWYQQKPGKAPKLLIYDASTLQSGVPSRFSGSGSGTQFTLTISSLQPDDFATYYCLGVYGYSSDDGAAFGQGTKLTVLGGGGGSGGGGSGGGGSGGGGSEVQLVESGGGLVQPGGSLRLSCTVSGFSLNSNEISWVRQAPGKGLEWVGYIGNGGMTHYASWAKGRFTISRDTSKNTVYLQMNSLRAEDTAVYYCASSVEYTDLYYLNIWGQGTLVTVSS
B12: EP15_max (scFv)
chain: EIVMTQSPSTLSASVGDRVIITCQASENIYTSLAWYQQKPGKAPKLLIYSASTLASGVPSRFSGSGSGTEFTLTISSLQPDDFATYYCQQGFATSNVENPFGQGTKLTVLGGGGGSGGGGSGGGGSGGGGSEVQLVESGGGSVQPGGSLRLSCTVSGFSLSRYGVSWVRQAPGKGLEWVGAIGETGRAYYANWAKSRSTISRDTSKNTVYLQMNSLRAEDTATYYCARGEEFNNGWGAFNIWGQGTTVTVSS
B13: EP43_max (scFv)
chain: EIVMTQSPSTLSASVGDRVIIKCQASQSISDWLAWYQQKPGKAPKLLIYGASRLASGFPSRFSGSGSGAEFTLTISGLEPADFATYYCQQGWSDSYVDNLFGQGTKLTVLGGGGGSGGGGSGGGGSGGGGSEVQLVESGGGLVQPGGSLRLSCTVSGFSLSSGAMSWVRQAPGKGLEWVGVIISSGATYYASWAKGRFTISKDTSKNTVYLQMNSLRAEDTAVYYCARGGPDDSNSMGTFDPWGQGTLVTVSS
B14: EP35_max (scFv)
chain: EIVMTQSPSTLSASVGDRVIITCQASQSISNLLAWYQQKPGKAPKLLIVAASKLASGVPSRFSGSGSGTEFTLTISSLQPDDFATYYCQQGWSHTNVDNTFGQGTKLTVLGGGGGSGGGGSGGGGSGGGGSEVQLVESGGGSVQPGGSLRLSCTASGFSFSVGYWICWVRQAPGKGLEWVACIDAGTSGGTYYATWAKGRFTISKDTSKNTVYLQMNSLRAEDTATYYCARGVSSNGYYFKLWGQGTTVTVSS
B15: EP15_min (scFv)
chain: EIVMTQSPSTLSASVGDRVIITCQASENIYTSLAWYQQKPGKAPKLLIYSASTLASGVPSRFSGSGSGAEFTLTISSLQPDDFATYYCQQGFATSNVENPFGQGTKLTVLGGGGGSGGGGSGGGGSGGGGSEVQLVESGGGLVQPGGSLRLSCAASGFTFSRYGVSWVRQAPGKGLEWVSAIGETGRAYYANWAKSRFTISRDNSKNTLYLQMNSLRAEDTAVYYCAKGEEFNNGWGAFNIWGQGTLVTVSS
B16: EP43_min (scFv)
chain: EIVMTQSPSTLSASVGDRVIITCQASQSISDWLAWYQQKPGKAPKLLIYGASRLASGVPSRFSGSGSGAEFTLTISSLQPDDFATYYCQQGWSDSYVDNLFGQGTKLTVLGGGGGSGGGGSGGGGSGGGGSEVQLVESGGGLVQPGGSLRLSCAASGFSLSSGAMSWVRQAPGKGLEWVSVIISSGATYYASWAKGRFTISRDNSKNTLYLQMNSLRAEDTAVYYCAKGGPDDSNSMGTFDPWGQGTLVTVSS
B17: EP1_max (scFv)
chain: EIVMTQSPSTLSASVGDRVIITCQSTESVYKNNYLAWYQQKPGKAPKLLIYDASTLASGVPSRFSGSGSGTEFTLTISSLQPDDFATYYCAGYYRSGSGTANGSFGQGTKLTVLGGGGGSGGGGSGGGGSGGGGSEVQLVESGGGSVQPGGSLRLSCTVSGIDLSNDAISWVRQAPGKGLEWVAYISDWSIRYYANWAQGRFTISKDTSKNTVYLQMNSLRAEDTATYYCARGAPGAGDNGIWGQGTTVTVSS
B18: EP42_max (scFv)
chain: B17 chain with S98F, S165R, A184S, S190G, R192K, N196S, A198V, Q199K
B19: EP6_min (scFv)
chain: EIVMTQSPSTLSASVGDRVIITCQASESIYSGLAWYQQKPGKAPKLLIYQASTLASGVPSRFSGSGSGAEFTLTISSLQPDDFATYYCQQGFGTSNVENPFGQGTKLTVLGGGGGSGGGGSGGGGSGGGGSEVQLVESGGGLVQPGGSLRLSCAASGFSLSRYGVSWVRQAPGKGLEWVSTIGEAGRAYYANWARSRFTISRDNSKNTLYLQMNSLRAEDTAVYYCAKGEVFNNGWGAFNIWGQGTLVTVSS
B20: EP6_max (scFv)
chain: B19 chain with A69T, E70D, T74A, A154T, A155V, S180G, F198S, N204T, L209V, K228R

The binders below were run against VEGF (as used in the VEGFR competition ELISA) (assay: competition ELISA against hVEGR1, EC50 ratio to reference Luc).
Sequence of VEGF (as used in the VEGFR competition ELISA) (P15692 whole entry): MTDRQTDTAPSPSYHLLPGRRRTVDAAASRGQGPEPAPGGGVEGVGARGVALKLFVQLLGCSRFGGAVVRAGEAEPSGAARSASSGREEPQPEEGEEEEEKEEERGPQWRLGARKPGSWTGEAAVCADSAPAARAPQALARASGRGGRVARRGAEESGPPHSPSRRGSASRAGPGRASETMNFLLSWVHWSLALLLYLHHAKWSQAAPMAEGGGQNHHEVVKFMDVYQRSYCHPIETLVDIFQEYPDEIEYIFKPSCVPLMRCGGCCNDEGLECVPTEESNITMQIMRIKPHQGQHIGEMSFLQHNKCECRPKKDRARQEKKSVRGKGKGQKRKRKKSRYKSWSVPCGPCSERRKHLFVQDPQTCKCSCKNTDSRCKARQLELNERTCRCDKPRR

**Q.** How did the “Rel. activity hVEGR1 comp. ELISA (EC50Luc[nM]/EC50test[nM])” value turn out when B1 was run?
**A.** 0.7 ratio

**Q.** B2 was tested. Which “Rel. activity hVEGR1 comp. ELISA (EC50Luc[nM]/EC50test[nM])” value did it give?
**A.** 13 ratio

Each binder was assayed against T1, recombinant human VEGF165 (PeproTech EC Ltd.) (human, UniProt P15692-4 27-191) (assay: SPR BIAcore T100, hVEGF165 amine-coupled on CM4 chip, scFv as analyte).
T1 construct: Amine-coupled to a CM4 sensor chip; also called hVEGF165
T1 sequence (P15692 other isoform, or with tags, fused parts or gaps limits assumed): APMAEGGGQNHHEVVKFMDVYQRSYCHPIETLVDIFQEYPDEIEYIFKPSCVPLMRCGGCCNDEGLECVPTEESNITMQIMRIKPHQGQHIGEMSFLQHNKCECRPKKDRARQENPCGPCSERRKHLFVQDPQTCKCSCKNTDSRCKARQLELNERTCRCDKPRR

**Q.** With B1 as the binder, how does the Kd read?
**A.** 2.53 nM

**Q.** And the koff?
**A.** 0.00128 s⁻¹

**Q.** And the kon?
**A.** 505000 M⁻¹ s⁻¹

**Q.** For B3, which Kd is on record?
**A.** 4.53 nM

**Q.** And the koff?
**A.** 0.000755 s⁻¹

**Q.** What about the kon of the same binder?
**A.** 167000 M⁻¹ s⁻¹

**Q.** With B2 as the binder, how does the Kd read?
**A.** 1.21 nM

**Q.** And the koff?
**A.** 0.00272 s⁻¹

**Q.** And the kon?
**A.** 2.26e+06 M⁻¹ s⁻¹

**Q.** What does the source list for B4?
**A.** Kd: 9.21 nM; koff: 0.0173 s⁻¹; kon: 1.88e+06 M⁻¹ s⁻¹

**Q.** B5 was tested. Which Kd did it give?
**A.** 10.6 nM

**Q.** And the koff?
**A.** 0.00265 s⁻¹

**Q.** What about the kon of the same binder?
**A.** 251000 M⁻¹ s⁻¹

**Q.** Which results are given for B6?
**A.** Kd: 1.18 nM; koff: 0.000601 s⁻¹; kon: 509000 M⁻¹ s⁻¹

**Q.** What does the source list for B7?
**A.** Kd: 5.41 nM; koff: 0.00501 s⁻¹; kon: 927000 M⁻¹ s⁻¹

**Q.** What does the source list for B8?
**A.** Kd: 2.68 nM; koff: 0.00655 s⁻¹; kon: 2.44e+06 M⁻¹ s⁻¹

Each binder was assayed against T2, Human TNFa N-his trimers (human, UniProt P01375 77-233) (assay: SPR BIAcore T100, His-tagged human TNF trimers captured on NTA chip, scFv as analyte).
T2 construct: Captured at 5 nM on an NTA sensor chip by the N-terminal his-tags; also called His-tagged TNF (produced at ESBATech); not shown: N-terminal his-tag
T2 sequence (P01375 77-233 limits assumed): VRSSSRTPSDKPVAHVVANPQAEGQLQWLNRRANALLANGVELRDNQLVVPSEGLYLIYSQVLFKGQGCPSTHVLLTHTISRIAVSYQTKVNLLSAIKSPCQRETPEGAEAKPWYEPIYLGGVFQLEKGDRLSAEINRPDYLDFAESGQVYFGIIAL

**Q.** With B9 as the binder, how does the Kd read?
**A.** 58.7 nM

**Q.** For B10, which Kd is on record?
**A.** 0.0286 nM

**Q.** Which Kd does the source give for B11 here?
**A.** 2.91 nM

**Q.** B12 was tested. Which Kd did it give?
**A.** 1.48 nM

**Q.** Which Kd does the source give for B13 here?
**A.** 0.251 nM

**Q.** For B14, which Kd is on record?
**A.** 0.194 nM

**Q.** B15 was tested. Which Kd did it give?
**A.** 262 nM

**Q.** Which Kd does the source give for B16 here?
**A.** 5540 nM

**Q.** With B17 as the binder, how does the Kd read?
**A.** 56.9 nM

**Q.** With B18 as the binder, how does the Kd read?
**A.** 3.46 nM

**Q.** With B19 as the binder, how does the Kd read?
**A.** 106 nM

**Q.** With B20 as the binder, how does the Kd read?
**A.** 0.512 nM

Reference: EP3964526A1 (Novartis AG, dated 2022)
